Measurements as given in patent publication US6743893B2, “Receptor-mediated uptake of peptides that bind the human transferrin receptor” (The UAB Research Foundation, priority 2000, dated 2004).
One block for each substance: values may come before it.

Legend:
[1] = target: T1, human transferrin receptor (hTfR) (Homo sapiens, UniProt P02786); experiment: Competition studies of phage binding to CEF+hTfR cells; conditions: competitor added prior to phage, 1 hour at 4° C.
T1 construct: expressed in transfected cells; host or cells: chicken embryo fibroblasts (CEF+hTfR), stably transduced with a retroviral vector
Description: Binding and Competition Studies: Purified phage populations were amplified and were verified to be homogenous through DNA sequencing. Cells were prepared for binding as was described for biopanning procedures. Preparations of plaque-purified and titered phage (1×10^11) were incubated in serum-free Opti-MEM on either CEF or CEF+hTfR cells at 4° C. for 1 hour. The cells were washed repeatedly with Opti-HEM and bound phage were eluted with low pH buffer and subsequently titered. In competition studies, holo-transferrin (Calbiochem, La Jolla, Calif.) or synthesized peptides were added to CEF+hTfR cells prior to addition of the phage for 1 hour at 4° C. Multiple trials were completed and average titers and standard deviations determined. The titers determined on CEF+hTfR cells were divided by the titers determined on CEF cells and multiplied by 100 to yield fold over control data points.
Due to a synthesis error, a peptide with the sequence HAIYPNH (Seq. ID No. 14) was also synthesized.

CEF+hTfR cells = experiment: Immunofluorescence binding and internalization on CEF+hTfR cells; format: cell-based, chicken; conditions: for endocytosis into CEF+hTfR cells (fluorescence after low pH buffer wash): 37° C., low pH buffer wash before fixation
Description: Immunofluorescence: CEF+hTfR cells were grown on glass coverslips to 50% to 75% confluence. The coverslips were washed and incubated in serum-free Opti-MEM media at 37° C. for 1 hour. […] Cells were washed with Opti-MEM, then fixed in 3% formaldehyde for 30 minutes at 4° C. Alternatively, the cells were acid-washed with 0.2 M glycine-HCl, Ph 2.2, prior to fixation. A GFP monoclonal antibody (Clontech) was used in conjunction with an Oregon-Green Goat Anti-Mouse (Molecular Probes) to augment GFP fluorescence. All slides were counterstained with DAPI (2(4Amidinophenyl)-6indole carbamidinedihydrochioride) (Sigma). The microscopic slides were mounted in Prolong™ antifade medium (Molecular Probes). Images were captured on an AX70 microscope with Olympus Camera (Olympus, Melville, N.Y.) and analyzed with ESPRIT software (Life Science Resources, Cambridge, England). Final figures were assembled using Microsoft Power Point (Microsoft Corp., Redmond, Wash.).
To evaluate the sufficiency of capacity of the peptides to mediate uptake of carrier protein, GFP fusion proteins were prepared. Immunofluorescence was used to determine if the GFP-peptides fusion constructs were internalized using the following assay. GFP-peptide constructs were cloned with a C-terminal peptide addition of either HAIYPRH (Seq. ID No. 1) (GFP-HAIYPRH) or […] (Seq. ID No. 2) (GFP-[…]). These constructs were expressed and purified to greater than 95% by Coomassie staining. Purified proteins were applied to CEF+hTfR cells at 4° C. (which prevents endocytosis) or at 37° C. […] This acid wash determined whether the protein was endocytosed by removing proteins bound at the cell surface. […]
Immunofluorescence images of the localization of various proteins applied to CEF+hTfR cells at either 4° C. or 37° were studied. […] The total fluorescence shown could result from both cell surface and endocytosed proteins.
The cells that had undergone a low pH buffer wash to enable identification of proteins that had been endocytosed were evaluated.

CEF cells = experiment: Immunofluorescence binding assays on CEF cells; format: cell-based, chicken; conditions: 4° C. or 37° C., CEF cells lack the hTfR
[2] = target: T1, human transferrin receptor (hTfR); experiment: Scatchard analysis of 125I-labelled protein binding to CEF+hTfR cells; conditions: CEF+hTfR cells on ice, 1 hour, read-out: binding affinity (Scatchard)
Description: 1M NaOH was added to lyse the cells for determining the bound fraction. Both unbound and bound fractions were counted in a gamma counter and binding affinities were determined using Scatchard analysis.
Serial dilutions of labelled proteins were incubated with CEF+hTfR cells on ice in PBS-0.1% BSA in duplicate wells. After 1 hour, the unbound fraction was removed and cells were washed four times. Cells were removed from the well with 1N NaOH. The unbound and bound fractions were counted in a gamma counter and fmoles of bound and unbound were calculated. Scatchard plots were derived by plotting bound versus bound/free of an average value generated by the duplicate wells. A best of fit line was generated using the Excel program (Microsoft Corp.) and the binding affinities were determined by the slope of the plotted lines.

T1 sequence (P02786 whole entry): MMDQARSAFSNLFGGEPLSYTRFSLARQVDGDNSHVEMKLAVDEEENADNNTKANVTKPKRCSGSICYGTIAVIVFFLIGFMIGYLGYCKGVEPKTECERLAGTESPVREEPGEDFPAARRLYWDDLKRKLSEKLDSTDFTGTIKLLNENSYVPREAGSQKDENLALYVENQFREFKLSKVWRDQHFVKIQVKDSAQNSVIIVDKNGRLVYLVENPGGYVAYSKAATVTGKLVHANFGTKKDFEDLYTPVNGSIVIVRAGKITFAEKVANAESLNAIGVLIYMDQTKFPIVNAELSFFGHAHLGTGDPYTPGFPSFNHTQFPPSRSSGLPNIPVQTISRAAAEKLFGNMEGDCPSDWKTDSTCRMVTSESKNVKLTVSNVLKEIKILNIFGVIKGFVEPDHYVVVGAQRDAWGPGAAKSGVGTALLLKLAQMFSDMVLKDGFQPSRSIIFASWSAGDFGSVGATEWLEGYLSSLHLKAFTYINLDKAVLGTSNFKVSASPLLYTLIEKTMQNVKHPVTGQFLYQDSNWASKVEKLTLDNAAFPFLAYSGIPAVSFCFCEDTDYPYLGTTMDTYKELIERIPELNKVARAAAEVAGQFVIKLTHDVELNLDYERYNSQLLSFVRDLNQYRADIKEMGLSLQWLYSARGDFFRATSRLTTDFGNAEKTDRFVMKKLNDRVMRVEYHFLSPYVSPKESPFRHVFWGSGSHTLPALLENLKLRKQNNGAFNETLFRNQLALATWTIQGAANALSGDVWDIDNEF

- competition of HAIYPRH phage binding to CEF+hTfR cells by added peptide or Tf [1]: no effect
Substance: HAIYPNH [peptide synthesized due to a synthesis error, asparagine in place of arginine]

- competition of HAIYPRH phage binding to CEF+hTfR cells by added peptide or Tf [1]: competed away to background levels
- competition of THRPPMWSPVWP phage binding to CEF+hTfR cells by added peptide or Tf [1]: failed to significantly compete
Substance: HAIYPRH

- competition of THRPPMWSPVWP phage binding to CEF+hTfR cells by added peptide or Tf [1]: not by the scrambled 12-mer sequence
Substance: PWRPSHPVWMPT

- competition of HAIYPRH phage binding to CEF+hTfR cells by added peptide or Tf [1]: failed to significantly compete
Substance: THRPPMWSPVWP

Substance: Texas-Red Tf: Tf conjugated to the Texas-Red fluorochrome, positive control
- endocytosis into CEF+hTfR cells (fluorescence after low pH buffer wash) (CEF+hTfR cells): readily endocytosed

Substance: Tf: transferrin from human serum, native ligand of hTfR
- binding or internalization on CEF cells (CEF cells): neither of the GFP fusion proteins or transferrin bound or internalized

- Kd [2]: 240 µM
Substance: wtGFP: purified wild-type green fluorescent protein, negative control
- localization/binding of protein on CEF+hTfR cells without acid wash (CEF+hTfR cells; 37° C. for one hour, no acid wash): minimal binding
- endocytosis into CEF+hTfR cells (fluorescence after low pH buffer wash) (CEF+hTfR cells): unable to be endocytosed
